{
  "source": "paper PMC5453099",
  "about": "“Vascular Endothelial Growth Factor (VEGF) Detection Using an Aptamer and PNA-Based Bound/Free Separation System”",
  "binders": {"B1": {"name": "VEGF aptamer (58-mer) (structured_DNA)", "DNA": "CTGGCCAGGTACCAAAAGATGATCTTGGGCCCGTCCGAATGGTGGGTGTTCTGGCCAG"}},
  "molecular_target": "VEGF (vascular endothelial growth factor) (UniProt P15692-4 27-191)",
  "sequence (P15692 other isoform, or with tags, fused parts or gaps)": "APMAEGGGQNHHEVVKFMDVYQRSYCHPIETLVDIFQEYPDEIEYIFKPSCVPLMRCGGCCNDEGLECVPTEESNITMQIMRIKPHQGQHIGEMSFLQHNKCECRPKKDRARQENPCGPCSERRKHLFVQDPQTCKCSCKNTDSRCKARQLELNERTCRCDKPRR",
  "assay": "bound/free separation: fluorescence of supernatant after capture of free aptamer on PNA beads; 10 nM aptamer, CaPNA4 beads; signal rises with 5-50 nM VEGF; detection limit 25 nM (not a Kd); TBS: 10 mM Tris-HCl pH 7.0, 100 mM NaCl; room temperature; protein and aptamer 10 min, then CaPNA beads 5 min (beads blocked with 4% skimmed milk and 4 mM biotin)",
  "conditions": "protein: commercial; chain copies: 2; label: 5'-fluorescein; predicted three-way junction with stem-loops",
  "data": [
    {"binder": "B1", "values": [
      {"measurement": "binding result", "result": "binds"}
    ]}
  ]
}
